What follows are sequences tested on Escherichia coli TOP10 (assay: shrunken log2 fold change of peptide-encoding DNA abundance (4.5 h post-induction vs induction); higher = less antimicrobial activity (less host growth inhibition)). Conditions: time post-induction: 4.5 h; library: site-saturation at positions 5, 18, 19, 20.
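Further: peptides expressed intracellularly from a pBAD plasmid library in pooled LB shake-flask culture, induced with 0.3% L-arabinose, DNA abundance read by NGS, three biological replicates, DESeq2 with apeglm shrinkage.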

Row | Sequence | shrunken log2 fold change
1 | RRIRPRPPRLPRPRPRPWYHPRP | -0.516
2 | RRIRMRPPRLPRPRPRPANTPRP | -0.0215
3 | RRIRKRPPRLPRPRPRPKKHPRP | 0.276
4 | RRIRHRPPRLPRPRPRPVMTPRP | -0.496
5 | RRIRCRPPRLPRPRPRPYYMPRP | -0.904
6 | RRIRGRPPRLPRPRPRPMVQPRP | 0.0883
7 | RRIRYRPPRLPRPRPRPAPAPRP | 0.0272
8 | RRIRFRPPRLPRPRPRPYIEPRP | -0.504
9 | RRIRQRPPRLPRPRPRPLTHPRP | 0.045
10 | RRIRYRPPRLPRPRPRPQQWPRP | 0.155
11 | RRIRLRPPRLPRPRPRPSWAPRP | -0.098
12 | RRIRWRPPRLPRPRPRPEGFPRP | 0.192
13 | RRIRPRPPRLPRPRPRPITQPRP | -0.194
14 | RRIRNRPPRLPRPRPRPTYEPRP | -0.172
15 | RRIRSRPPRLPRPRPRPKATPRP | 0.7
16 | RRIRFRPPRLPRPRPRPGFYPRP | -0.28
17 | RRIRCRPPRLPRPRPRPTCSPRP | -0.157
18 | RRIRSRPPRLPRPRPRPPYTPRP | -0.395
19 | RRIRYRPPRLPRPRPRPTSKPRP | 0.902
20 | RRIRNRPPRLPRPRPRPDPNPRP | -0.488
21 | RRIRLRPPRLPRPRPRPGQSPRP | 0.0614
22 | RRIRPRPPRLPRPRPRPDRWPRP | 0.219
23 | RRIRSRPPRLPRPRPRPGVAPRP | 0.42
24 | RRIRIRPPRLPRPRPRPPIPPRP | 0.00551
25 | RRIRPRPPRLPRPRPRPWPSPRP | -0.125

Row | Sequence | shrunken log2 fold change
26 | RRIRMRPPRLPRPRPRPKCAPRP | 2.89
27 | RRIRRRPPRLPRPRPRPRWGPRP | 0.533
28 | RRIRLRPPRLPRPRPRPFIMPRP | -0.79
29 | RRIRHRPPRLPRPRPRPDTIPRP | -0.0628
30 | RRIRYRPPRLPRPRPRPVTRPRP | -0.129
31 | RRIRLRPPRLPRPRPRPPEEPRP | 0.0505
32 | RRIRRRPPRLPRPRPRPPKAPRP | -0.00754
33 | RRIRPRPPRLPRPRPRPPGCPRP | 0.264
34 | RRIRTRPPRLPRPRPRPSWVPRP | -0.165
35 | RRIRQRPPRLPRPRPRPRDCPRP | 0.142
36 | RRIRNRPPRLPRPRPRPKRNPRP | -0.189
37 | RRIRWRPPRLPRPRPRPMYYPRP | -0.32
38 | RRIRARPPRLPRPRPRPYFQPRP | -0.383
39 | RRIRYRPPRLPRPRPRPYWQPRP | -0.000687
40 | RRIRKRPPRLPRPRPRPNGIPRP | -0.029
41 | RRIRIRPPRLPRPRPRPSVKPRP | -0.037
42 | RRIRPRPPRLPRPRPRPNKLPRP | 0.448
43 | RRIRKRPPRLPRPRPRPILEPRP | 0.261
44 | RRIRSRPPRLPRPRPRPEPLPRP | 0.0528
45 | RRIRRRPPRLPRPRPRPYSCPRP | -0.0958
46 | RRIRVRPPRLPRPRPRPNYLPRP | -0.102
47 | RRIRHRPPRLPRPRPRPQSTPRP | -0.395
48 | RRIRHRPPRLPRPRPRPRAFPRP | -0.146
49 | RRIRSRPPRLPRPRPRPEDSPRP | 0.00839
50 | RRIRNRPPRLPRPRPRPAKEPRP | 0.0446

Row | Sequence | shrunken log2 fold change
51 | RRIRVRPPRLPRPRPRPIPKPRP | -0.131
52 | RRIRSRPPRLPRPRPRPFFEPRP | -0.161
53 | RRIRTRPPRLPRPRPRPNIVPRP | -0.192
54 | RRIRDRPPRLPRPRPRPEKVPRP | -0.00893
55 | RRIRFRPPRLPRPRPRPVKLPRP | 0.294
56 | RRIRYRPPRLPRPRPRPVVDPRP | -0.0233
57 | RRIRARPPRLPRPRPRPAYWPRP | 0.393
58 | RRIRLRPPRLPRPRPRPPKLPRP | 0.252
59 | RRIRCRPPRLPRPRPRPTRDPRP | 0.104
60 | RRIRYRPPRLPRPRPRPNVNPRP | -1.2
61 | RRIRLRPPRLPRPRPRPSYMPRP | -0.802
62 | RRIRSRPPRLPRPRPRPRYFPRP | -0.0823
63 | RRIRGRPPRLPRPRPRPINLPRP | -0.0974
64 | RRIRLRPPRLPRPRPRPCPWPRP | -0.129
65 | RRIRKRPPRLPRPRPRPKDNPRP | 0.297
66 | RRIRQRPPRLPRPRPRPFYYPRP | -0.59
67 | RRIRNRPPRLPRPRPRPAIKPRP | -0.383
68 | RRIRFRPPRLPRPRPRPVECPRP | -0.17
69 | RRIRWRPPRLPRPRPRPCMHPRP | -0.0533
70 | RRIRLRPPRLPRPRPRPETIPRP | 0.0243
71 | RRIRIRPPRLPRPRPRPKWQPRP | -0.114
72 | RRIRERPPRLPRPRPRPCYWPRP | -0.361
73 | RRIRKRPPRLPRPRPRPQKHPRP | 0.224
74 | RRIRHRPPRLPRPRPRPPQTPRP | -0.00347
75 | RRIRIRPPRLPRPRPRPFDWPRP | 0.305

From the supplement of paper PMC9112550, “Optimization of the antimicrobial peptide Bac7 by deep mutational scanning” (BMC Biology, 2022)
